Target: the molecule itself
Assay: crystal structure; PIV5 HN ectodomain 56-565 at ~10 mg/mL with a 1.2 molar excess of sialyllactose; 1.6 M ammonium sulfate, 0.1 M MES pH 6.5, 10% 1,4-dioxane, room temperature; space group I4, 2.5 Å

B1: PIV5 HN ectodomain (56-565) (domain or fragment)
chain: SGLGSITDLLNNILSVANQIIYNSAVALPLQLDTLESTLLTAIKSLQTSDKLEQNCSWSAALINDNRYINGINQFYFSIAEGRNLTLGPLLNMPSFIPTATTPEGCTRIPSFSLTKTHWCYTHNVILNGCQDHVSSNQFVSMGIIEPTSAGFPFFRTLKTLYLSDGVNRKSCSISTVPGGCMMYCFVSTQPERDDYFSAAPPEQRIIIMYYNDTIVERIINPPGVLDVWATLNPGTGSGVYYLGWVLFPIYGGVIKGTSLWNNQANKYFIPQMVAALCSQNQATQVQNAKSSYYSSWFGNRMIQSGILACPLRQDLTNECLVLPFSNDQVLMGAEGRLYMYGDSVYYYQRSNSWWPMTMLYKVTITFTNGQPSAISAQNVPTQQVPRPGTGDCSATNRCPGFCLTGVYADAWLLTNPSSTSTFGSEATFTGSYLNTATQRINPTMYIANNTQIISSQQFGSSGQEAAYGHTTCFRDTGSVMVYCIYIIELSSSLLGQFQIVPFIRQVTLS
notes: Hemagglutinin-neuraminidase (HN) of parainfluenza virus 5, ectodomain residues 56-565 (stalk 56-101, linker 102-117, head from I118); also called parainfluenza virus 5 hemagglutinin-neuraminidase ectodomain
stoichiometry N: 4

Source: article PMC3738495, “Structure of the Parainfluenza Virus 5 (PIV5) Hemagglutinin-Neuraminidase (HN) Ectodomain” (PLoS Pathogens, 2013)
